According to FireProtDB (doi:10.1021/bi0027783):
“And” between values parts separate entries of the source, which are not always exact repeats. Equal values may be shown once.

Conditions: Allium sativum, reversible: yes, whole UniProt chain shown; for denaturant m value / denaturant midpoint (higher = more stable) / unfolding free energy: GdnHCl
[1] = pH 5, Thermal, DSC, citrate phosphate 20 mM
[2] = pH 5.5, Thermal, DSC, citrate phosphate 20 mM
[3] = pH 5.8, Thermal, DSC, citrate phosphate 20 mM
[4] = pH 6, Thermal, DSC, citrate phosphate 20 mM
[5] = pH 7.5, 50.7 °C, Thermal, CD, PBS 20 mM
[6] = pH 7.5, 53.3 °C, Thermal, CD, PBS 20 mM
[7] = pH 7.5, 55.7 °C, Thermal, CD, PBS 20 mM
[8] = pH 7.5, 56.3 °C, Thermal, CD, PBS 20 mM
[9] = pH 7.5, 60.8 °C, Thermal, CD, PBS 20 mM
[10] = pH 7.5, 64.2 °C, Thermal, CD, PBS 20 mM
[11] = pH 7.5, 66.4 °C, Thermal, CD, PBS 20 mM

RNILMNGEGLYAGQSLDVEPYHFIMQEDCN [wild type]
Tm [1]: 75.5 °C
unfolding enthalpy (van 't Hoff) [1]: 132 kcal/mol
Tm [2]: 74.6 °C
unfolding enthalpy (van 't Hoff) [2]: 130 kcal/mol
Tm [3]: 73.9 °C
unfolding enthalpy (van 't Hoff) [3]: 128 kcal/mol
Tm [4]: 73.1 °C
unfolding enthalpy (van 't Hoff) [4]: 125 kcal/mol
Tm (pH 7, Thermal, DSC, PBS 20 mM): 70.9 °C
unfolding enthalpy (van 't Hoff) (pH 7, Thermal, DSC, PBS 20 mM): 118 kcal/mol
denaturant m value (pH 7.5, 10 °C, CD, PBS 20 mM): 2.61 kcal/mol/M
denaturant midpoint (higher = more stable) (pH 7.5, 10 °C, CD, PBS 20 mM): 4.9 M
unfolding free energy (pH 7.5, 10 °C, CD, PBS 20 mM): 12.8 kcal/mol
denaturant m value (pH 7.5, 15 °C, CD, PBS 20 mM): 2.23 kcal/mol/M
denaturant midpoint (higher = more stable) (pH 7.5, 15 °C, CD, PBS 20 mM): 5.84 M
unfolding free energy (pH 7.5, 15 °C, CD, PBS 20 mM): 13 kcal/mol
denaturant m value (pH 7.5, 20 °C, CD, PBS 20 mM): 2.25 kcal/mol/M
denaturant midpoint (higher = more stable) (pH 7.5, 20 °C, CD, PBS 20 mM): 5.84 M
unfolding free energy (pH 7.5, 20 °C, CD, PBS 20 mM): 13.1 kcal/mol
denaturant m value (pH 7.5, 25 °C, CD, PBS 20 mM): 2.3 kcal/mol/M
denaturant midpoint (higher = more stable) (pH 7.5, 25 °C, CD, PBS 20 mM): 5.6 M
unfolding free energy (pH 7.5, 25 °C, CD, PBS 20 mM): 12.9 kcal/mol
denaturant m value (pH 7.5, 30 °C, CD, PBS 20 mM): 2.64 kcal/mol/M
denaturant midpoint (higher = more stable) (pH 7.5, 30 °C, CD, PBS 20 mM): 4.62 M
unfolding free energy (pH 7.5, 30 °C, CD, PBS 20 mM): 12.2 kcal/mol
denaturant m value (pH 7.5, 35 °C, CD, PBS 20 mM): 3.21 kcal/mol/M
denaturant midpoint (higher = more stable) (pH 7.5, 35 °C, CD, PBS 20 mM): 3.4 M
unfolding free energy (pH 7.5, 35 °C, CD, PBS 20 mM): 10.9 kcal/mol
denaturant m value (pH 7.5, 40 °C, CD, PBS 20 mM): 4 kcal/mol/M
denaturant midpoint (higher = more stable) (pH 7.5, 40 °C, CD, PBS 20 mM): 2.41 M
unfolding free energy (pH 7.5, 40 °C, CD, PBS 20 mM): 9.65 kcal/mol
denaturant m value (pH 7.5, 45 °C, CD, PBS 20 mM): 3.89 kcal/mol/M
denaturant midpoint (higher = more stable) (pH 7.5, 45 °C, CD, PBS 20 mM): 1.99 M
unfolding free energy (pH 7.5, 45 °C, CD, PBS 20 mM): 7.74 kcal/mol
denaturant m value (pH 7.5, 50 °C, CD, PBS 20 mM): 3.83 kcal/mol/M
denaturant midpoint (higher = more stable) (pH 7.5, 50 °C, CD, PBS 20 mM): 1.5 M
unfolding free energy (pH 7.5, 50 °C, CD, PBS 20 mM): 5.75 kcal/mol
heat capacity change of unfolding [5]: 3.64 kcal/mol/K
unfolding enthalpy (van 't Hoff) [5]: 115 kcal/mol
heat capacity change of unfolding [6]: 3.59 kcal/mol/K
unfolding enthalpy (van 't Hoff) [6]: 118 kcal/mol
heat capacity change of unfolding [7]: 3.5 kcal/mol/K
unfolding enthalpy (van 't Hoff) [7]: 124 kcal/mol
heat capacity change of unfolding [8]: 3.4 kcal/mol/K
unfolding enthalpy (van 't Hoff) [8]: 136 kcal/mol
heat capacity change of unfolding [9]: 3.32 kcal/mol/K
unfolding enthalpy (van 't Hoff) [9]: 142 kcal/mol
heat capacity change of unfolding [10]: 3.25 kcal/mol/K
unfolding enthalpy (van 't Hoff) [10]: 153 kcal/mol
heat capacity change of unfolding [11]: 3.2 kcal/mol/K
unfolding enthalpy (van 't Hoff) [11]: 173 kcal/mol
unfolding enthalpy (calorimetric) (pH 7.5, Thermal, DSC, PBS 20 mM): 96.4 kcal/mol and 116 kcal/mol and 118 kcal/mol
Tm (pH 8, Thermal, DSC, PBS 20 mM): 69.2 °C
unfolding enthalpy (van 't Hoff) (pH 8, Thermal, DSC, PBS 20 mM): 113 kcal/mol
